Drawing on paper PMC3526290, this text covers Kd for two substances.

The target of experiment [1] is Cac2 B domain (Saccharomyces cerevisiae) (UniProt Q04199). Particulars: cited from earlier work.
Experiment [2] addresses Asf1 labeled with Alexa Fluor 532 (*Asf1), full-length (budding yeast) (UniProt P32447). Description: fluorescence polarisation; fluorescence anisotropy; 10 nM *Asf1 (alone or pre-bound to 20 nM H3/H4) or 100 nM *Asf1^1-169, Cac2 or CAF-1 titrated; 20 mM HEPES, 150 mM NaCl, pH 7.4, 20°C.
For experiment [3] the target is unchanged. Description: native gel or EMSA; labelled protein (*Asf1, 0.5 µM in Figure 1b, or H3/H4*) with Cac2 or CAF-1 titrated or at 20 µM; 10 mM Tris, 1 mM DTT, pH 8.0, 30 min on ice; 0.2x TBE 59:1 native gel on ice; fraction bound from band densities.

pKd: −log10 of the molar value.

Sequence of UniProt Q04199 (Q04199 449-468): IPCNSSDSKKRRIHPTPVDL

As to Asf1 (from UniProt P32447), the pKd in experiment [1] was 5.82.

With “Chromatin Assembly Factor 1 (CAF-1) complex: Cac1, Cac2, Cac3 (from UniProt Q12495 1-606; Q04199 1-468; P13712 1-422)”, the pKd was 6.42 in experiment [2] and 6.55 in experiment [3].
